One protein from paper doi:10.1101/844506v1 can be followed below.

Substrate in this data set: O=[N+]([O-])c1ccc(O[C@@H]2O[C@H](CO)[C@@H](O)[C@H](O)[C@H]2O)cc1
Briefly: purified protein. To be noted: no added glucose.

B1: B8CYA8 (β-glucosidase from Halothermothrix orenii) (Halothermothrix orenii H 168) (protein)
chain: MAKIIFPEDFIWGAATSSYQIEGAFNEDGKGESIWDRFSHTPGKIENGDTGDIACDHYHLYREDIELMKEIGIRSYRFSTSWPRILPEGKGRVNQKGLDFYKRLVDNLLKANIRPMITLYHWDLPQALQDKGGWTNRDTAKYFAEYARLMFEEFNGLVDLWVTHNEPWVVAFEGHAFGNHAPGTKDFKTALQVAHHLLLSHGMAVDIFREEDLPGEIGITLNLTPAYPAGDSEKDVKAASLLDDYINAWFLSPVFKGSYPEELHHIYEQNLGAFTTQPGDMDIISRDIDFLGINYYSRMVVRHKPGDNLFNAEVVKMEDRPSTEMGWEIYPQGLYDILVRVNKEYTDKPLYITENGAAFDDKLTEEGKIHDEKRINYLGDHFKQAYKALKDGVPLRGYYVWSLMDNFEWAYGYSKRFGLIYVDYENGNRRFLKDSALWYREVIEKGQVEAN
The term Km denotes the substrate concentration at which the rate is half of its maximum. For orientation: kcat means the number of substrate molecules converted per active site and unit of time at saturation. With B1, the Km was 1800 ± 100 µM and the kcat was 339.0 ± 28.3 s⁻¹.
